Test results from PMC5322562, “Dynamic regulation of GDP binding to G proteins revealed by magnetic field-dependent NMR relaxation analyses” (Nature Communications, 2017).

Molecular target: human Gαi3 (residues 1–354), GDP-bound form (human, UniProt P08754 1-354)
Assay: cell-based or functional assay

Chain of human Gαi3 (residues 1–354), GDP-bound form (P08754 whole entry, the tested form may be a part): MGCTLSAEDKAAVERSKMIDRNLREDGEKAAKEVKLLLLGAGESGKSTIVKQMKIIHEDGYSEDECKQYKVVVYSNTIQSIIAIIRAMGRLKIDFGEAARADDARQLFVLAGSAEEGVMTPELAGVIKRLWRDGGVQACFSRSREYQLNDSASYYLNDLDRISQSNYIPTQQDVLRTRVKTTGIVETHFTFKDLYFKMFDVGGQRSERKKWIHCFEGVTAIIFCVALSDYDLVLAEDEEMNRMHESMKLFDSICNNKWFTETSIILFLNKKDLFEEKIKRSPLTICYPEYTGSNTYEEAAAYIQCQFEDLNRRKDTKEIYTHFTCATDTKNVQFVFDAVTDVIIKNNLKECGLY

- IC50 of the inhibition of 3H-GDP dissociation from Gα-GDP (bound 3H-GDP after a 10 min incubation with 100 nM to 10 μM GoLoco14; 30 °C): 620 nM
B1: GoLoco14 peptide (residues 496–531 of rat RGS14) (peptide)
chain: GPLGSDIEGLVELLNRVQSSGAHDQRGLLRKEDLVLPEFLQ
